Assay results from the Human Domainome abundance scans (Beltran et al. 2025).
± gives the uncertainty stated by the source.

B1: Endonuclease CUE2, residues 9 to 47; numbered along this chain, P36075 (parent)
chain: HESKLSILMDMFPAISKSKLQVHLLENNNDLDLTIGLLL

Variants of: B1
Assay: abundance fitness (aPCA) (normalised: wild type 0, dead -1); higher = more abundant; growth selection in yeast, the domain comes from the species named
Conditions: Saccharomyces cerevisiae (strain ATCC 204508 / S288c)

First: HESKCSILMDMFPAISKSKLQVHLLENNNDLDLTIGLLL
Second: HESKRSILMDMFPAISKSKLQVHLLENNNDLDLTIGLLL
The abundance fitness of the first is higher: -0.306 ± 0.066 for the first, -0.906 ± 0.067 for the second.

HESKDSILMDMFPAISKSKLQVHLLENNNDLDLTIGLLL and HESKWSILMDMFPAISKSKLQVHLLENNNDLDLTIGLLL are within error of each other in abundance fitness: -0.928 ± 0.25 for the first, -0.779 ± 0.078 for the second.

HESKGSILMDMFPAISKSKLQVHLLENNNDLDLTIGLLL and HESKPSILMDMFPAISKSKLQVHLLENNNDLDLTIGLLL are within error of each other in abundance fitness: -0.817 ± 0.055 for the first, -0.738 ± 0.18 for the second.

HESKESILMDMFPAISKSKLQVHLLENNNDLDLTIGLLL and HESKQSILMDMFPAISKSKLQVHLLENNNDLDLTIGLLL are within error of each other in abundance fitness: -0.683 ± 0.076 for the first, -0.775 ± 0.081 for the second.

First: HESKLSIWMDMFPAISKSKLQVHLLENNNDLDLTIGLLL
Second: HESKLSIVMDMFPAISKSKLQVHLLENNNDLDLTIGLLL
The abundance fitness of the first is lower: -0.947 ± 0.13 for the first, -0.596 ± 0.046 for the second.

First: HESKLSIMMDMFPAISKSKLQVHLLENNNDLDLTIGLLL
Second: HESKLSIEMDMFPAISKSKLQVHLLENNNDLDLTIGLLL
The abundance fitness of the first is higher: -0.631 ± 0.12 for the first, -0.931 ± 0.09 for the second.

HESKLSIRMDMFPAISKSKLQVHLLENNNDLDLTIGLLL and HESKLSIKMDMFPAISKSKLQVHLLENNNDLDLTIGLLL are within error of each other in abundance fitness: -0.883 ± 0.084 for the first, -0.968 ± 0.15 for the second.

HESKLSIAMDMFPAISKSKLQVHLLENNNDLDLTIGLLL and HESKLSIFMDMFPAISKSKLQVHLLENNNDLDLTIGLLL are within error of each other in abundance fitness: -1.02 ± 0.18 for the first, -0.701 ± 0.18 for the second.

HESKLSISMDMFPAISKSKLQVHLLENNNDLDLTIGLLL and HESKLSIDMDMFPAISKSKLQVHLLENNNDLDLTIGLLL are within error of each other in abundance fitness: -0.915 ± 0.23 for the first, -1.16 ± 0.42 for the second.

HESKLSIQMDMFPAISKSKLQVHLLENNNDLDLTIGLLL and HESKLSIGMDMFPAISKSKLQVHLLENNNDLDLTIGLLL are within error of each other in abundance fitness: -0.96 ± 0.33 for the first, -0.913 ± 0.065 for the second.

HESKLWILMDMFPAISKSKLQVHLLENNNDLDLTIGLLL and HESKLPILMDMFPAISKSKLQVHLLENNNDLDLTIGLLL are within error of each other in abundance fitness: -0.443 ± 0.074 for the first, -0.342 ± 0.072 for the second.

HESKLGILMDMFPAISKSKLQVHLLENNNDLDLTIGLLL and HESKLTILMDMFPAISKSKLQVHLLENNNDLDLTIGLLL are within error of each other in abundance fitness: -0.073 ± 0.032 for the first, -0.011 ± 0.045 for the second.

HESKLEILMDMFPAISKSKLQVHLLENNNDLDLTIGLLL and HESKLMILMDMFPAISKSKLQVHLLENNNDLDLTIGLLL are within error of each other in abundance fitness: -0.107 ± 0.053 for the first, -0.221 ± 0.09 for the second.

Compared with HESKLHILMDMFPAISKSKLQVHLLENNNDLDLTIGLLL, HESKLLILMDMFPAISKSKLQVHLLENNNDLDLTIGLLL is higher in abundance fitness: -0.38 ± 0.089 for the first, -0.098 ± 0.042 for the second.

First: HESKLAILMDMFPAISKSKLQVHLLENNNDLDLTIGLLL
Second: HESKLRILMDMFPAISKSKLQVHLLENNNDLDLTIGLLL
The abundance fitness of the first is higher: 0.041 ± 0.034 for the first, -0.027 ± 0.033 for the second.

HESKLYILMDMFPAISKSKLQVHLLENNNDLDLTIGLLL and HESKLQILMDMFPAISKSKLQVHLLENNNDLDLTIGLLL are within error of each other in abundance fitness: 0.32 ± 0.45 for the first, 0 ± 0.12 for the second.

First: HESMLSILMDMFPAISKSKLQVHLLENNNDLDLTIGLLL
Second: HESELSILMDMFPAISKSKLQVHLLENNNDLDLTIGLLL
The abundance fitness of the first is higher: 0.188 ± 0.11 for the first, -0.011 ± 0.034 for the second.

Compared with HESCLSILMDMFPAISKSKLQVHLLENNNDLDLTIGLLL, HESDLSILMDMFPAISKSKLQVHLLENNNDLDLTIGLLL is higher in abundance fitness: -0.061 ± 0.061 for the first, 0.115 ± 0.059 for the second.

Compared with HESLLSILMDMFPAISKSKLQVHLLENNNDLDLTIGLLL, HESQLSILMDMFPAISKSKLQVHLLENNNDLDLTIGLLL is higher in abundance fitness: -0.13 ± 0.047 for the first, -0.023 ± 0.052 for the second.

Compared with HESILSILMDMFPAISKSKLQVHLLENNNDLDLTIGLLL, HESVLSILMDMFPAISKSKLQVHLLENNNDLDLTIGLLL is lower in abundance fitness: -0.127 ± 0.17 for the first, -0.37 ± 0.047 for the second.

HESFLSILMDMFPAISKSKLQVHLLENNNDLDLTIGLLL and HESGLSILMDMFPAISKSKLQVHLLENNNDLDLTIGLLL are within error of each other in abundance fitness: -0.259 ± 0.086 for the first, -0.241 ± 0.033 for the second.

Compared with HESPLSILMDMFPAISKSKLQVHLLENNNDLDLTIGLLL, HESWLSILMDMFPAISKSKLQVHLLENNNDLDLTIGLLL is lower in abundance fitness: -0.16 ± 0.059 for the first, -0.572 ± 0.057 for the second.

HESNLSILMDMFPAISKSKLQVHLLENNNDLDLTIGLLL and HESALSILMDMFPAISKSKLQVHLLENNNDLDLTIGLLL are within error of each other in abundance fitness: -0.023 ± 0.1 for the first, -0.117 ± 0.04 for the second.

HESHLSILMDMFPAISKSKLQVHLLENNNDLDLTIGLLL and HESYLSILMDMFPAISKSKLQVHLLENNNDLDLTIGLLL are within error of each other in abundance fitness: 0.098 ± 0.19 for the first, 0.127 ± 0.21 for the second.

HESSLSILMDMFPAISKSKLQVHLLENNNDLDLTIGLLL and HESRLSILMDMFPAISKSKLQVHLLENNNDLDLTIGLLL are within error of each other in abundance fitness: -0.001 ± 0.065 for the first, -0.038 ± 0.035 for the second.

First: HESKLSSLMDMFPAISKSKLQVHLLENNNDLDLTIGLLL
Second: HESKLSGLMDMFPAISKSKLQVHLLENNNDLDLTIGLLL
The abundance fitness of the first is higher: -0.114 ± 0.065 for the first, -0.544 ± 0.039 for the second.

Going from HESKLSQLMDMFPAISKSKLQVHLLENNNDLDLTIGLLL to HESKLSWLMDMFPAISKSKLQVHLLENNNDLDLTIGLLL, the abundance fitness falls from 0.137 ± 0.072 to -0.406 ± 0.067.

HESKLSKLMDMFPAISKSKLQVHLLENNNDLDLTIGLLL and HESKLSDLMDMFPAISKSKLQVHLLENNNDLDLTIGLLL are within error of each other in abundance fitness: 0.078 ± 0.096 for the first, 0.22 ± 0.28 for the second.

HESKLSVLMDMFPAISKSKLQVHLLENNNDLDLTIGLLL and HESKLSALMDMFPAISKSKLQVHLLENNNDLDLTIGLLL are within error of each other in abundance fitness: 0.095 ± 0.036 for the first, 0.071 ± 0.042 for the second.

First: HESKLSPLMDMFPAISKSKLQVHLLENNNDLDLTIGLLL
Second: HESKLSFLMDMFPAISKSKLQVHLLENNNDLDLTIGLLL
The abundance fitness of the first is lower: -0.633 ± 0.17 for the first, -0.282 ± 0.076 for the second.

HESKLSTLMDMFPAISKSKLQVHLLENNNDLDLTIGLLL and HESKLSCLMDMFPAISKSKLQVHLLENNNDLDLTIGLLL are within error of each other in abundance fitness: 0.059 ± 0.051 for the first, 0.153 ± 0.26 for the second.

First: HESKLSELMDMFPAISKSKLQVHLLENNNDLDLTIGLLL
Second: HESKLSMLMDMFPAISKSKLQVHLLENNNDLDLTIGLLL
The abundance fitness of the first is lower: -0.158 ± 0.065 for the first, 0.058 ± 0.071 for the second.
